Assay results taken from publication PMC3285515.

Target: HSV-1 glycoprotein D (gD), wild type, on KOS/tk12 virions (HSV-1 (strain KOS)) (UniProt A1Z0Q5)
Chain of UniProt A1Z0Q5 (A1Z0Q5 26-394): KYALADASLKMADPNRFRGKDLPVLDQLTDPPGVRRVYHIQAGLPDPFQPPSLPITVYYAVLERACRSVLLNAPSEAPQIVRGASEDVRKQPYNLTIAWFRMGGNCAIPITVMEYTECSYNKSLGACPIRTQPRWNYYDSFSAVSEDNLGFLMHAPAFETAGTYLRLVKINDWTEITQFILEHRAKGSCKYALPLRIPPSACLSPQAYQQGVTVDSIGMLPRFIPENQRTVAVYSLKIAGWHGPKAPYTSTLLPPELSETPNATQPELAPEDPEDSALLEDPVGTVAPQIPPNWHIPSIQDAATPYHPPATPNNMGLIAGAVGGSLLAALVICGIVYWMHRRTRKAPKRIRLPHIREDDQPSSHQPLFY

“sHA102, soluble HVEM (HveA) protein containing the first two cysteine-rich pseudorepeats (N-terminal 102 amino acids of HVEM) (domain or fragment)” showed a sHA102-mediated KOS/tk12 infection of receptor-deficient CHO-K1 cells; sHA102 0-1,000 nM, MOI 3 and 9; ONPG assay and X-gal staining (percent of cells infected) (% of the cells infected) of 90 to 100.
